{"source": "patent US20240117074A1", "about": "(published 2024)", "binders": {"B1": {"name": "AC_05293 (bispecific antibody)", "chain 1": "EVQLLESGGGLVQPGGSLRLSCAASGFTFSSYAMSWVRQAPGKGLEWVSGIGSYGGGTYYADSVKGRFTISRDNSKNTLYLQMNSLRAEDTAVYYCARYVNFGMDYWGQGTLVTVSS", "chain 2": "DIQMTQSPSSLSASVGDRVTITCRASQSISSYLNWYQQKPGKAPKLLIYAASSLQSGVPSRFSGSGSGTDFTLTISSLQPEDFATYYCQQYGRNPPTFGQGTKLEIK", "chain 3": "EVQLLEQSGAELVRPGTSVKISCKASGYAFTNYWLGWVKQRPGHGLEWIGDIFPGSGNIHYNEKFKGKATLTADKSSSTAYMQLSSLTFEDSAVYFCARLRNWDEPMDYWGQGTTVTVSS", "chain 4": "ELVMTQSPSSLTVTAGEKVTMSCKSSQSLLNSGNQKNYLTWYQQKPGQPPKLLIYWASTRESGVPDRFTGSGSGTDFTLTISSVQAEDLAVYYCQNDYSYPLTFGAGTKLEIK"}, "B2": {"name": "AC_05331 (bispecific antibody)", "chain 1": "not shown", "chain 2": "B1 chain 2 with Y91T, G92Y, R93G, N94Y, P95L, P96H", "chain 3": "EVQLLESGGGLVQPGGSLRLSCAASGFTFSTYGMHWVRQAPGKGLEWLSYISGGSSYIFYADSVRGRFTISRDNSENALYLQMNSLRAEDTAVYYCARILRGGSGMDLWGQGTLVTVSS", "chain 4": "QSVLTQPPSASGTPGQRVTISCTGSSSNIGAGYNVYWYQQLPGTAPKLLIYGNINRPSGVPDRFSGSKSGTSASLAISGLRSEDEADYYCAAWDKSISGLVFGGGTKLTVLG"}, "B3": {"name": "AC_05300 (bispecific antibody)", "chain 1": "B1 chain 3", "chain 2": "B1 chain 4", "chain 3": "B1 chain 1", "chain 4": "B1 chain 2"}, "B4": {"name": "AC_05330 (bispecific antibody)", "chain 1": "B2 chain 3", "chain 2": "B2 chain 4", "chain 3": "not shown", "chain 4": "B1 chain 2 with Y91T, G92Y, R93G, N94Y, P95L, P96H"}}, "note": "Changes are numbered by the printed parent chain.", "data": [{"biological_target": "T1, biotinylated human CD40-mouse Fc (Ancell #504-030) (human, UniProt P25942 21-193, biotinylated)", "T1 construct": "Bought fusion protein; also called hCD40-muIg; CD40mFc-biotin; not shown: mouse Ig Fc of the bought fusion protein", "T1 sequence (P25942 21-193)": "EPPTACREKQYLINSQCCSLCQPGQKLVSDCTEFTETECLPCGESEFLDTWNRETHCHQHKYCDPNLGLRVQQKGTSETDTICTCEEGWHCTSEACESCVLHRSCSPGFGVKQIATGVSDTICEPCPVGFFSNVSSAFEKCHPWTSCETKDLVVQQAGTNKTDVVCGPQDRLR", "assay": "Octet BLI, captured CD40mFc-biotin, bsAb in solution", "units": {"Kd": "nM", "koff": "s⁻¹", "kon": "M⁻¹ s⁻¹"}, "values": [{"binder": "B1", "Kd": 76, "koff": 0.00062, "kon": 8300}, {"binder": "B2", "Kd": 0.23, "koff": "8.1e-06", "kon": 36000}, {"binder": "B3", "Kd": 8.5, "koff": 0.0046, "kon": 540000}, {"binder": "B4", "Kd": 0.45, "koff": "1.6e-05", "kon": 35000}]}]}
